Target: T1, GST-Flag-SASPase 28 kDa recombinant protein (human, UniProt Q53RT3 85-343)
T1 construct: Skin aspartic acid protease, amino acids 1-259 of SASPase 28, corresponding to amino acids 85-343 of SASPase 37 (Q53RT3); Expression vector pEB9; also called GST-SASPase 28; 28 kDa SASPase; source: E. coli BL21, purified (glutathione resin); not shown: GST, N-terminal, kept; Flag, N-terminal, kept
T1 sequence (looked up): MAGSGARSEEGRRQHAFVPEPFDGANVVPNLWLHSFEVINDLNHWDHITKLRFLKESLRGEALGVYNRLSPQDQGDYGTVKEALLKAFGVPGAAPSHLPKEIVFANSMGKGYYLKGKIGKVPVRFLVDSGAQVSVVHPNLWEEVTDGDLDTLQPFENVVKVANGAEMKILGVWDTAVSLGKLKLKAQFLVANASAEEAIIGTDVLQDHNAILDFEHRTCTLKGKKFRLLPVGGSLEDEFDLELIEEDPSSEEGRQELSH
Test: SPR; Biacore T200, 25°C, HBS-EP+; goat anti-GST on CM5 captures GST-Flag-SASPase 28 (1 μM, flow cell 2) and GST (flow cell 1); analyte MBP-HA-FLG2S100 at 0-6 μM, control MBP-HA at 3 and 6 μM; 1:1 Langmuir fit
Conditions: both partners purified

Kd: 488 nM
koff: 0.00226 s⁻¹
kon: 4630 M⁻¹ s⁻¹
B1: MBP-HA FLG2 S100 (aa 2-95) (domain or fragment, human, UniProt Q5D862 2-95, looked up)
chain: TDLLRSVVTVIDVFYKYTKQDGECGTLSKGELKELLEKELHPVLKNPDDPDTVDVIMHMLDRDHDRRLDFTEFLLMIFKLTMACNKVLSKEYCK
notes: Filaggrin 2, amino acids 2-95 containing the S100 domain; Expression vector pEB7; also called MBP-HA FLG2 (aa 2-95); source: E. coli BL21, purified (amylose resin); not shown: MBP, N-terminal, kept; HA, N-terminal, kept

From paper PMC7241785, “Filaggrin and filaggrin 2 processing are linked together through skin aspartic acid protease activation” (PLoS ONE, 2020)
